Source: US20020159972A1 (PENN STATE RESEARCH FOUNDATION, published 2002)

Biological target: T1, restricted (IL4 independent) hIL13 receptor (human, UniProt Q14627 27-380)
T1 construct: whole, on cells; also called restricted receptor; restrictive receptor
T1 sequence (looked up): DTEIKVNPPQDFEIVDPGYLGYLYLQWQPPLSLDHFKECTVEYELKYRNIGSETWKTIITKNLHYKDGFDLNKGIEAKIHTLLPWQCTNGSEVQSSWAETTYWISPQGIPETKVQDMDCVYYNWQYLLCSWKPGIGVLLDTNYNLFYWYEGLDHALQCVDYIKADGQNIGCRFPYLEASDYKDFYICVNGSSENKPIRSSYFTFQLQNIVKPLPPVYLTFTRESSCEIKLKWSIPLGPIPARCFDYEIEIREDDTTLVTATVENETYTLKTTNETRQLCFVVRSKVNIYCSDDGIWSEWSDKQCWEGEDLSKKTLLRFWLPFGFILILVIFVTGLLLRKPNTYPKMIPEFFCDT
Assay: autoradiography competition on GBM tissue sections against ^125I-hIL13.E13Y
Procedure: Serial tissue sections were cut (10 mm) on a cryostat, thaw-mounchrome alumme-alum coated slides, and stored at 4° C. until analyzed. […] To dissociate non-specifically bound radioligand, sections were rinsed in four consecutive changes (5 minutes each) of ice-cold 0.1 M PBS. […] After drying, labeled sections were apposed to Kodak autoradiography film at −65° C. for 8 hr to 11 days.

B1: recombinant hIL4 (human interleukin 4) (ligand, UniProt P05112 25-153, looked up)
chain: HKCDITLQEIIKTLNSLTEQKTLCTELTVTDIFAASKNTTEKETFCRAATVLRQFYSHHEKDTRCLGATAQQFHRHKQLIRFLKRLDRNLWGLAGLNSCPVKEANQSTLENFLERLKTIMREKYSKCSS
binding result: no binding (tested: 100- to 500-fold molar excess)
